Tests used:
Assay in all cases: cell-based or functional assay
[1] = target: SC422661.8 envelope (HIV-1)
[2] = target: C.TV-1 envelope (HIV-1)
[3] = target: Du156.12 envelope (HIV-1)
[4] = target: CAP206.1.B5 envelope (HIV-1)
[5] = target: Du422.1 envelope (HIV-1)
[6] = target: B.SF162 envelope (HIV-1)
[7] = target: QH0692.42 envelope (HIV-1)
[8] = target: TRO.11 envelope (HIV-1)
[9] = target: ZM197M.PB7 envelope (HIV-1)
[10] = target: B.BG1168 envelope (HIV-1)
[11] = target: COT6.15 envelope D664A (HIV-1)
[12] = target: COT6.15 envelope W680A (HIV-1)
[13] = target: COT6.15 envelope I675A (HIV-1)
[14] = target: COT6.15 envelope T676A (HIV-1)
[15] = target: COT6.15 envelope N668A (HIV-1)
[16] = target: COT6.15 envelope W666A (HIV-1)
[17] = target: COT6.15 envelope D674A (HIV-1)
[18] = target: COT6.15 envelope F673A (HIV-1)
[19] = target: COT6.15 envelope W678A (HIV-1)
[20] = target: COT6.15 envelope W670A (HIV-1)
[21] = target: COT6.15 envelope D674S (HIV-1)
[22] = target: COT6.15 envelope A662G (HIV-1)
[23] = target: COT6.15 envelope, wild type (HIV-1)
[24] = target: COT6.15 envelope K677A (HIV-1)
[25] = target: COT6.15 envelope S665A (HIV-1)
[26] = target: COT6.15 envelope L669A (HIV-1)
[27] = target: COT6.15 envelope L679A (HIV-1)
[28] = target: COT6.15 envelope K667A (HIV-1)
[29] = target: COT6.15 envelope S671A (HIV-1)
[30] = target: COT6.15 envelope W672A (HIV-1)
[31] = target: COT6.15 envelope L663A (HIV-1)
[32] = target: COT6.15 envelope D674N (HIV-1)

Substance mAb 2F5 (Polymun Scientific) (antibody) has an IC50 in TZM-bl/FcγRI cells [1] of less than 10 µg/mL, a 50% neutralization level [2] of 10.9 µg/mL and an IC50 in TZM-bl cells [3] greater than 25000 µg/mL. The IC50 in TZM-bl/FcγRI cells [3] was greater than 25000 µg/mL, the IC50 in TZM-bl cells [4] was greater than 25000 µg/mL and the IC50 in TZM-bl/FcγRI cells [4] was greater than 25000 µg/mL. It also gave an IC50 in TZM-bl cells [5] greater than 25000 µg/mL, an IC50 in TZM-bl/FcγRI cells [5] greater than 25000 µg/mL and a 50% neutralization level [6] of 0.1 µg/mL. It also gave an IC50 in TZM-bl cells [7] of 1810 µg/mL, an IC50 in TZM-bl/FcγRI cells [7] of less than 10 µg/mL and an IC50 in TZM-bl cells [8] greater than 25000 µg/mL. For the same substance, the IC50 in TZM-bl cells [9] was greater than 25000 µg/mL, the IC50 in TZM-bl/FcγRI cells [9] was 60 µg/mL and the 50% neutralization level [10] was 0.32 µg/mL.
mAb 4E10 (antibody) showed an IC50 in TZM-bl/FcγRI cells [1] of less than 10 µg/mL, an IC50, pseudovirus neutralization [11] of 0.77 µg/mL and a Ratio (mutant IC50)/(wild-type IC50) [11] of 0.9. It also gave an IC50, pseudovirus neutralization [12] of 10.9 µg/mL, a Ratio (mutant IC50)/(wild-type IC50) [12] of 12.1 and an IC50, pseudovirus neutralization [13] of 0.04 µg/mL. The Ratio (mutant IC50)/(wild-type IC50) [13] was 0, the IC50 in TZM-bl cells [3] was 200 µg/mL and the IC50 in TZM-bl/FcγRI cells [3] was less than 10 µg/mL. It also gave an IC50, pseudovirus neutralization [14] of 21.8 µg/mL, a Ratio (mutant IC50)/(wild-type IC50) [14] of 24.2 and an IC50, pseudovirus neutralization [15] of 1.3 µg/mL. For the same substance, the Ratio (mutant IC50)/(wild-type IC50) [15] was 1.4, the IC50, pseudovirus neutralization [16] was 0.51 µg/mL and the Ratio (mutant IC50)/(wild-type IC50) [16] was 0.6. It also gave an IC50 in TZM-bl cells [4] of 0.1, an IC50 in TZM-bl/FcγRI cells [4] of less than 10 µg/mL and an IC50 in TZM-bl cells [5] of 300 µg/mL. For the same substance, the IC50 in TZM-bl/FcγRI cells [5] was less than 10 µg/mL, the IC50, pseudovirus neutralization [17] was 1.4 µg/mL and the Ratio (mutant IC50)/(wild-type IC50) [17] was 1.6. The IC50, pseudovirus neutralization [18] was greater than 25 µg/mL, the Ratio (mutant IC50)/(wild-type IC50) [18] was greater than 25 and the IC50, pseudovirus neutralization [19] was 0.05 µg/mL. It also gave a Ratio (mutant IC50)/(wild-type IC50) [19] of 0.1, an IC50, pseudovirus neutralization [20] of 0.11 µg/mL and a Ratio (mutant IC50)/(wild-type IC50) [20] of 0.1. It also gave an IC50, pseudovirus neutralization [21] of 2.49 µg/mL, a Ratio (mutant IC50)/(wild-type IC50) [21] of 2.8 and an IC50, pseudovirus neutralization [22] of 0.12 µg/mL. For the same substance, the Ratio (mutant IC50)/(wild-type IC50) [22] was 0.1, the IC50, pseudovirus neutralization [23] was 0.9 µg/mL and the IC50, pseudovirus neutralization [24] was 0.05 µg/mL. The Ratio (mutant IC50)/(wild-type IC50) [24] was 0.1, the IC50, pseudovirus neutralization [25] was 0.14 µg/mL and the Ratio (mutant IC50)/(wild-type IC50) [25] was 0.2. For the same substance, the IC50, pseudovirus neutralization [26] was 0.05 µg/mL, the Ratio (mutant IC50)/(wild-type IC50) [26] was 0.1 and the IC50, pseudovirus neutralization [27] was 0.09 µg/mL. The Ratio (mutant IC50)/(wild-type IC50) [27] was 0.1, the IC50 in TZM-bl cells [7] was 6500 µg/mL and the IC50 in TZM-bl/FcγRI cells [7] was 110 µg/mL. The IC50 in TZM-bl cells [8] was 300 µg/mL, the IC50, pseudovirus neutralization [28] was 0.05 µg/mL and the Ratio (mutant IC50)/(wild-type IC50) [28] was 0.1. It also gave an IC50, pseudovirus neutralization [29] of 0.04 µg/mL, a Ratio (mutant IC50)/(wild-type IC50) [29] of 0 and an IC50, pseudovirus neutralization [30] greater than 25 µg/mL. It also gave a Ratio (mutant IC50)/(wild-type IC50) [30] greater than 25, an IC50 in TZM-bl cells [9] of 1100 µg/mL and an IC50 in TZM-bl/FcγRI cells [9] of less than 10 µg/mL. It also gave an IC50, pseudovirus neutralization [31] of 0.02 µg/mL, a Ratio (mutant IC50)/(wild-type IC50) [31] of 0 and an IC50, pseudovirus neutralization [32] of 0.33 µg/mL. It also gave a Ratio (mutant IC50)/(wild-type IC50) [32] of 0.4.
In the case of mAb Z13e1 (antibody), the IC50 in TZM-bl cells [3] is reported as 4700 µg/mL, the IC50 in TZM-bl cells [7] is reported as 46000 µg/mL and the IC50 in TZM-bl cells [8] is reported as 13300 µg/mL. It also gave an IC50 in TZM-bl cells [9] of 30.
For recombinant 2F5 IgG antibody, the 50% neutralization level [2] was 34.5 µg/mL, the 50% neutralization level [6] was 0.3 µg/mL and the 50% neutralization level [10] was 1.17 µg/mL.
